Data reported in patent US20220332804A1 (CSL INNOVATION, published 2022).

What was measured:
Test in all cases: SPR, antibody captured, C2 as analyte;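 further: biacore SPR at 37 °C, anti-C2 mAbs captured via goat anti-human IgG on CM5 chips, double-referenced sensorgrams fit to a 1:1 kinetic or steady-state model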
[1] = target: T1, human C2 K715A (human, UniProt P06681 21-752)
T1 sequence: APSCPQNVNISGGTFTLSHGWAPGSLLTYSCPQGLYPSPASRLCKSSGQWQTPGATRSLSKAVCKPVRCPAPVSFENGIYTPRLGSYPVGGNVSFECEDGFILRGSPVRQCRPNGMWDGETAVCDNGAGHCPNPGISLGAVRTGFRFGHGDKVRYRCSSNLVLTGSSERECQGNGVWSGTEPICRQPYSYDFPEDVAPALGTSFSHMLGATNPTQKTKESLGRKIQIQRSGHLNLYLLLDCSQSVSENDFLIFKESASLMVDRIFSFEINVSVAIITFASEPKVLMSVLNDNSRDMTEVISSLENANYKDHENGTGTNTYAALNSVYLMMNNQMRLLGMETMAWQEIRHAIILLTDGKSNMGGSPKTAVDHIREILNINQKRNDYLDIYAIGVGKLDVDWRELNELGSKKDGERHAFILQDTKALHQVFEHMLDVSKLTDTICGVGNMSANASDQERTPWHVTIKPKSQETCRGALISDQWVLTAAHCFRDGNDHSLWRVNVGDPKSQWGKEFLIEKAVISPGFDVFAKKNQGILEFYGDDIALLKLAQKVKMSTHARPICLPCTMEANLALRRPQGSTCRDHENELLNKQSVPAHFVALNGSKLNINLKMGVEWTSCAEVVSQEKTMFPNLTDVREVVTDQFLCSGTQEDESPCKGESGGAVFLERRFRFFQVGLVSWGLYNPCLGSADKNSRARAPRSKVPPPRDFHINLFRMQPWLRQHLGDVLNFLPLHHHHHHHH

[2] = target: T2, human C2 S720A (human, UniProt P06681 21-752)
T2 sequence: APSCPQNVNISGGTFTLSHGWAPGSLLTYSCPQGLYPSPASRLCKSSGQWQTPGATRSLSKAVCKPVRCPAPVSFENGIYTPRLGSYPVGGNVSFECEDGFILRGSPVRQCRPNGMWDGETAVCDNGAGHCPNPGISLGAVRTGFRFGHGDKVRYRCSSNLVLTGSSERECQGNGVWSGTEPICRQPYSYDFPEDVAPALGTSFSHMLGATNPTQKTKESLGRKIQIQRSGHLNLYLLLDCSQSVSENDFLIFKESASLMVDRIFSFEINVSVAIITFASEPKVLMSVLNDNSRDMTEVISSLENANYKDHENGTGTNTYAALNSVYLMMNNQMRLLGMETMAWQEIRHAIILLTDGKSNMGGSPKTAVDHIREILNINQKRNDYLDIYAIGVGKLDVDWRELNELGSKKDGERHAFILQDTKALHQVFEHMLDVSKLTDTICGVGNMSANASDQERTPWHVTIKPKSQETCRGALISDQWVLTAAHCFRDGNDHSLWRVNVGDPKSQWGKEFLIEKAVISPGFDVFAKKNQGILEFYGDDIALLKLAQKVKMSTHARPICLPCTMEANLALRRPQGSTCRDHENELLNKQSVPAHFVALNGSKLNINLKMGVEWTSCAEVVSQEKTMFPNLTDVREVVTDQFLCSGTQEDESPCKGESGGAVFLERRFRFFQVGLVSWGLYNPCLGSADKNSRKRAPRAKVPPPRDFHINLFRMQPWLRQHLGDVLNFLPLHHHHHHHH

[3] = target: T3, human C2 N403A (human, UniProt P06681 21-752)
T3 sequence: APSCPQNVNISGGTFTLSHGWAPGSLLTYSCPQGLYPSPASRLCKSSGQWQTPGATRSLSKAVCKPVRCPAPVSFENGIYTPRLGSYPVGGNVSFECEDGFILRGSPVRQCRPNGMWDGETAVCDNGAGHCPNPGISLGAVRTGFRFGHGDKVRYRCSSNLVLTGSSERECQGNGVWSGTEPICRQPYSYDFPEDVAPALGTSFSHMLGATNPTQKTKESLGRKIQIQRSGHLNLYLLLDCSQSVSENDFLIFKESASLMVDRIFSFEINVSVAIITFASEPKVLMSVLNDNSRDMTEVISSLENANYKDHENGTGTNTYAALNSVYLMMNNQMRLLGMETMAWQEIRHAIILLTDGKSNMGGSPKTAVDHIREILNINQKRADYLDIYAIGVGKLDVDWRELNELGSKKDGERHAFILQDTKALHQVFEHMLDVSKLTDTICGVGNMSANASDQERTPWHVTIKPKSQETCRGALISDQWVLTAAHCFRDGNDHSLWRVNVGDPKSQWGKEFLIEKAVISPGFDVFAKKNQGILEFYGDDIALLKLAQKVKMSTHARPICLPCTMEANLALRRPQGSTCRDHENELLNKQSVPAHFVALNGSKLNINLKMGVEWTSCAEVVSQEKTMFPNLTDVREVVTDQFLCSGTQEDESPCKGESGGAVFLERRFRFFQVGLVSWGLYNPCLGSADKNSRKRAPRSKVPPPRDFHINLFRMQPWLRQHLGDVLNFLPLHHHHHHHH

[4] = target: T4, human C2 P723A (human, UniProt P06681 21-752)
T4 sequence: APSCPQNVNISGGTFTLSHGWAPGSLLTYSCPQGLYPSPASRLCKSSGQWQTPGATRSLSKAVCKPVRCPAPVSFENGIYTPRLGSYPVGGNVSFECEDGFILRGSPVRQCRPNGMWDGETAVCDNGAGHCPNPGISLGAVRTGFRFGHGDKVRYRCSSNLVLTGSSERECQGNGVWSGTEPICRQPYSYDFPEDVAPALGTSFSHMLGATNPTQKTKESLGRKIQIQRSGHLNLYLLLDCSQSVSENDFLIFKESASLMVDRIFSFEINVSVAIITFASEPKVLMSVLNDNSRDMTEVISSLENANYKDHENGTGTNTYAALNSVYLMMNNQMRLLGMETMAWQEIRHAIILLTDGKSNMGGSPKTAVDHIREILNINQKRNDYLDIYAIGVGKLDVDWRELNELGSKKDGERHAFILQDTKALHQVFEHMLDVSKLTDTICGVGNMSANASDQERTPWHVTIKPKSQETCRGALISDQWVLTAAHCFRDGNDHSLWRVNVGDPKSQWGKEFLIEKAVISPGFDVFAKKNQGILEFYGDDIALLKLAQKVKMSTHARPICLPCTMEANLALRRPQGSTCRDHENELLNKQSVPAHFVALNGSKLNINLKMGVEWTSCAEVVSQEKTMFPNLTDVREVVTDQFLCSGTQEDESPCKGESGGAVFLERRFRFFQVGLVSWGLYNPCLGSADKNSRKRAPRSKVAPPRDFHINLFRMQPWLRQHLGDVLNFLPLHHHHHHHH

B1: RF16-226 (antibody, human IgG4 S228P, lambda)
heavy: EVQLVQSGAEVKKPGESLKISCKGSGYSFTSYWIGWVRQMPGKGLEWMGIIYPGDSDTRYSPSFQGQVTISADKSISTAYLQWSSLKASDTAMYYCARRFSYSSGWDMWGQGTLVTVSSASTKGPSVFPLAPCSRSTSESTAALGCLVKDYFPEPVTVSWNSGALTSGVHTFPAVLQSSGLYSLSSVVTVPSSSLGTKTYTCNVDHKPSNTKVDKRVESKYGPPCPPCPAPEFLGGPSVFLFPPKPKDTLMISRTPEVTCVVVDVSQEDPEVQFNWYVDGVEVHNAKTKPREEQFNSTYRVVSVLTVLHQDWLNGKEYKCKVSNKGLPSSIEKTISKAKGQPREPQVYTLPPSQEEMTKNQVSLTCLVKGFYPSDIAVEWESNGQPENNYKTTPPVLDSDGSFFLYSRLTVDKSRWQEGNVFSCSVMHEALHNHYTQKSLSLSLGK
light: SYELTQPPSVSVSPGQTARITCSGDALTSKYVAWYQQKSGLAPLLVIYEDTRRPSGIPAKFSGSSSGSVATLTISGAHGDDEADYYCYSTDASGHQRVFGGGTKLTVLSQPKAAPSVTLFPPSSEELQANKATLVCLISDFYPGAVTVAWKADGSPVKAGVETTKPSKQSNNKYAASSYLSLTPEQWKSHRSYSCQVTHEGSTVEKTVAPTECS
notes: pH-dependent anti-C2 antibody from a phage display library; also called WT
Binder B1 has a Kd [1] of 0.0162 µM, a Kd [2] of 0.0146 µM and a Kd [3] of 0.0105 µM. For the same binder, the Kd [4] was 0.122 µM.
